Measurements published in IntAct's records for PubMed 21422170.

B1: Natural cytotoxicity triggering receptor 3 (Homo sapiens), O14931 (parent)
chain: MAWMLLLILIMVHPGSCALWVSQPPEIRTLEGSSAFLPCSFNASQGRLAIGSVTWFRDEVVPGKEVRNGTPEFRGRLAPLASSRFLHDHQAELHIRDVRGHDASIYVCRVEVLGLGVGTGNGTRLVVEKEHPQLGAGTVLLLRAGFYAVSFLSVAVGSTVYYQGKCLTWKGPRRQLPAVVPAPLPPPCGSSAHLLPPVPGG
partner: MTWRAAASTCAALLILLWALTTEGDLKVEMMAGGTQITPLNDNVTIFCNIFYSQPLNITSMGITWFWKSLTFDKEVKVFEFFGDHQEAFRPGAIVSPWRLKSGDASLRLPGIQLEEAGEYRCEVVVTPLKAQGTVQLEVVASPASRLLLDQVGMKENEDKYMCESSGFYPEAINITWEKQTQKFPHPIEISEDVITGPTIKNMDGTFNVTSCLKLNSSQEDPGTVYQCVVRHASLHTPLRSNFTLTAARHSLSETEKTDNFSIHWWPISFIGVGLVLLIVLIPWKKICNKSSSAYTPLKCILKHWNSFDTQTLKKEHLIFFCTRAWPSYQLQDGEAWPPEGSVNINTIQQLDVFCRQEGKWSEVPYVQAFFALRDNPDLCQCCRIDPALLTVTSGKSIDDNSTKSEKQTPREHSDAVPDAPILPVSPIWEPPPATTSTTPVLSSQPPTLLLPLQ

Variants of: B1
Conditions: with nr3l1_human NCR3LG1, Q68D85

Variant	effect of a mutation on the interaction
I50A;S52A	decreasing interaction strength
S52R	disrupting interaction strength
F85A;L86A	decreasing interaction strength
